Reference: patent US6689868 (Dana-Farber, dated 2004)
One block for each binder: values may come before it.

Legend:
[1] = target: T1, B42-CD2BP1S fusion (CD2BP1S in pJG4-5) (human, UniProt O43586 1-416); assay: yeast two-hybrid, lacZ induction
T1 construct: also called clone #48; CD2BP1S/pJG4-5
T1 sequence: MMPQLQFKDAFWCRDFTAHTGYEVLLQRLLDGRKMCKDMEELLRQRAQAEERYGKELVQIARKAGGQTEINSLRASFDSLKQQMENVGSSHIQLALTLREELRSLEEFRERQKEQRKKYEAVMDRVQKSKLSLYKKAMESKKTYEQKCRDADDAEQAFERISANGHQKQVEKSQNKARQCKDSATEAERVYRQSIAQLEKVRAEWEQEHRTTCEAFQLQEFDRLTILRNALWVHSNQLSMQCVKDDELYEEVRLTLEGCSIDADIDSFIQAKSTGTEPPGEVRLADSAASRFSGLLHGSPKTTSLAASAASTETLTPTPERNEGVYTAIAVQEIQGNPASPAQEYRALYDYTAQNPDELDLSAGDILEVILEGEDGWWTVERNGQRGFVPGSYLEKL
Protocol: (§1) These tail variants were tested in the yeast two-hybrid system for their interaction with CD2BP1L or CD2BP1S as well as CD2BP1 truncations. In FIG. 7, open bars represent the region of CD2BP1 sequence with homology to yeast cdc15 protein aa 116–277; solid bars represent PEST rich regions in the CD2BP1 sequences; and hatched bars represent the SH3 domain in the CD2BP1 sequences. CD2BP1S/ΔSH3 represents CD2BP1 lacking the SH3 domain. $SH334$ includes the entire SH3 domain of CD2BP1 and 34 N-terminal amino acids. $SH366$ includes the SH3 domain of CD2BP1S and 66 N-terminal amino acids. $SH383$ includes the SH3 domain of CD2BP1L and 83 N-terminal amino acids of CD2BP1L. SH^3GGGGS includes the entire SH3 domain of CD2BP1 and an artificial N-terminal linker consisting of the residues shown.
(§2) The strength of the interaction between the CD2 variants and the CD2BP1 constructs was determined by lacZ induction.

[2] = target: T2, B42-CD2BP1S/ΔSH3 (CD2BP1S truncation construct lacking the terminal SH3 domain) (human, UniProt O43586 1-359); assay: yeast two-hybrid, lacZ induction
T2 sequence: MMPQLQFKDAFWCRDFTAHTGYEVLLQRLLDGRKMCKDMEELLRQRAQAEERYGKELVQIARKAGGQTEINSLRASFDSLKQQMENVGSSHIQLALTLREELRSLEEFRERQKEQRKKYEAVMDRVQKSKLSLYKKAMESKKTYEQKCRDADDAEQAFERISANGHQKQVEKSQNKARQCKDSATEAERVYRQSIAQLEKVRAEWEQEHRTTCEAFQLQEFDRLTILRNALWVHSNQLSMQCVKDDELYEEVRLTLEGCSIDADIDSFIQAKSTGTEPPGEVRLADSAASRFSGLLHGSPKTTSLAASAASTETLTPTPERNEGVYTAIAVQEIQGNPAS
Protocol: as §1, §2

[3] = target: T3, B42-CD2BP1L fusion (CD2BP1L in pJG4-5) (human, UniProt O43586 1-416); assay: yeast two-hybrid, lacZ induction
T3 sequence: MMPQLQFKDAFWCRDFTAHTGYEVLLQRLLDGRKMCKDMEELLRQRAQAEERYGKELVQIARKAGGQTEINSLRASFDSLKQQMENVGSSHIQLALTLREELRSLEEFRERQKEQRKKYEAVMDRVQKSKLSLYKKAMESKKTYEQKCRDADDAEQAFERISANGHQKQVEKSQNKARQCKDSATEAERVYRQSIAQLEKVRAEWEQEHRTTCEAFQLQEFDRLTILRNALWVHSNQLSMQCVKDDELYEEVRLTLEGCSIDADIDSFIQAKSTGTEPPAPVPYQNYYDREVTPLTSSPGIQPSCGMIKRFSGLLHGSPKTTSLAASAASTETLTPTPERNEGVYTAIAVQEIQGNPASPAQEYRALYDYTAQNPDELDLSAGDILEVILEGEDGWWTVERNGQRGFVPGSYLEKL
Protocol: as §1, §2

[4] = target: T1, B42-CD2BP1S fusion (CD2BP1S in pJG4-5); assay: yeast two-hybrid (LexA-CD2 tail variant / B42-CD2BP1 construct), lacZ induction
Protocol: as §1, §2

- binding result [1]: no binding
- binding result [2]: no binding
- binding result [3]: no binding
B1: LexA-CD2 tail truncation construct M (other, UniProt P0A7C2 1-202, looked up)
chain: MKALTARQQEVFDLIRDHISQTGMPPTRAEIAQRLGFRSPNAAEEHLKALARKGVIEIVSGASRGIRLLQEEEEGLPLVGRVAAGEPLLAQQHIEGHYQVDPSLFKPNADFLLRVSGMSMKDIGIMDGDLLAVHKTQDVRNGQVVVARIDDEVTVKRLKKQGNKVELLPENSEFKPIVVDLRQQSFTIEGLAVGVIRNGDWLNDEELETRAHRVATEERGRKPHQIPASTPQNPATSQHPPPPPGHRSQAPSHRPPPPGHRVQHQPQKR

- binding result [1]: no binding
- binding result [2]: no binding
- binding result [3]: no binding
B2: LexA-CD2 tail truncation construct N (other, UniProt P0A7C2 1-202, looked up)
chain: MKALTARQQEVFDLIRDHISQTGMPPTRAEIAQRLGFRSPNAAEEHLKALARKGVIEIVSGASRGIRLLQEEEEGLPLVGRVAAGEPLLAQQHIEGHYQVDPSLFKPNADFLLRVSGMSMKDIGIMDGDLLAVHKTQDVRNGQVVVARIDDEVTVKRLKKQGNKVELLPENSEFKPIVVDLRQQSFTIEGLAVGVIRNGDWLNDEELETRAHRVATEERGRKPHQIPASTPQNPATSQHPPPPPGHRSQAPS

- binding result [2]: no binding
- binding result [3]: binds
- binding result [4]: binds
B3: LexA-CD2 cytoplasmic tail fusion (CD2 bait, aa 221-327) in pEG202 (other, UniProt P0A7C2 1-202, looked up)
chain: MKALTARQQEVFDLIRDHISQTGMPPTRAEIAQRLGFRSPNAAEEHLKALARKGVIEIVSGASRGIRLLQEEEEGLPLVGRVAAGEPLLAQQHIEGHYQVDPSLFKPNADFLLRVSGMSMKDIGIMDGDLLAVHKTQDVRNGQVVVARIDDEVTVKRLKKQGNKVELLPENSEFKPIVVDLRQQSFTIEGLAVGVIRNGDWLNDEELETRAHRVATEERGRKPHQIPASTPQNPATSQHPPPPPGHRSQAPSHRPPPPGHRVQHQPQKRPPAPSGTQVHQQKGPPLPRPRVQPKPPHGAAENSLSPSSN
notes: The CD2 aa numbers (tail ends at 327) appear to count on mature CD2, not on the precursor; also called CD2 tail; pEG202/CD2
